This note sets out measurements from PMC10397247.

The target of one assay is T1, 4H3112-bH.
T1 chain: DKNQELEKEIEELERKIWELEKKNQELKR
In words: two-hybrid library CCNG1.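 Note: natural log of median RNA to DNA barcode read ratio; higher means stronger binding.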

The target in a further assay is T2, 4H3427-bH.
T2 chain: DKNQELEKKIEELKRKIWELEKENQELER
In words: two-hybrid library CCNG1.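 Note: natural log of median RNA to DNA barcode read ratio; higher means stronger binding.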

A further assay concerns the target T3, 4H346-bH.
T3 chain: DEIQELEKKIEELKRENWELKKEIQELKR
Kind of assay: two-hybrid library CCNG1.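 Note: natural log of median RNA to DNA barcode read ratio; higher means stronger binding.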

A further assay concerns the target T4, 4H3926-bH.
T4 chain: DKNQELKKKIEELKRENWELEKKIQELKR
In words: two-hybrid library CCNG1.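 Note: natural log of median RNA to DNA barcode read ratio; higher means stronger binding.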

The target of a further assay is T5, 4H4073-bH.
T5 chain: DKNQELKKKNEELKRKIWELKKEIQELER
In words: two-hybrid library CCNG1.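 Note: natural log of median RNA to DNA barcode read ratio; higher means stronger binding.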

The next assay deals with T6, 4H457-bH.
T6 chain: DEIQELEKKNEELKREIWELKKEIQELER
Kind of assay: two-hybrid library CCNG1.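 Note: natural log of median RNA to DNA barcode read ratio; higher means stronger binding.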

The next assay concerns the target T7, 4H575-bH.
T7 chain: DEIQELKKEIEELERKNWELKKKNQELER
In words: two-hybrid library CCNG1.

The target in the next assay is T8, 4H683-bH.
T8 chain: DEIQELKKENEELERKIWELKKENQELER
In words: two-hybrid library CCNG1.

For a further assay, the target named is T9, 4H754-bH.
T9 chain: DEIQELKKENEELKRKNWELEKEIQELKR
In words: two-hybrid library CCNG1.

Another assay deals with T10, 4H780-bH.
T10 chain: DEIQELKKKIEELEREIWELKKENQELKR
In words: two-hybrid library CCNG1.

Another assay concerns the target T11, 4H797-bH.
T11 chain: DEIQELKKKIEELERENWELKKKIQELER
Kind of assay: two-hybrid library CCNG1.

A further assay addresses T12, 4H855-bH.
T12 chain: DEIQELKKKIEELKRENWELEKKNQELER
In words: two-hybrid library CCNG1.

The target in a further assay is T13, 4H918-bH.
T13 chain: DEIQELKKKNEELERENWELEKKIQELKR
In words: two-hybrid library CCNG1.

A further assay concerns the target T14, 4H953-bA.
T14 chain: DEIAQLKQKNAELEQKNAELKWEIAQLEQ
Kind of assay: two-hybrid library CCNG1.

The target in a further assay is T15, 4H953-bH.
T15 chain: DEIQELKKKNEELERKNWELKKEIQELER
In words: two-hybrid library CCNG1.

In a further assay the target is T16, 4H968-bH.
T16 chain: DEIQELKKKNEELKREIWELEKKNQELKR
Kind of assay: two-hybrid library CCNG1.

Another assay deals with T17, 4H3625-AA.
T17 chain: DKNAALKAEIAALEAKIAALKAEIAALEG
Kind of assay: two-hybrid library CCmax.

The target in a further assay is T18, 4H3664-AA.
T18 chain: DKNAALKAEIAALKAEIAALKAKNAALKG
In words: two-hybrid library CCmax. The note with it: mean of both orientations.

Another assay deals with T19, 4H369-AA.
T19 chain: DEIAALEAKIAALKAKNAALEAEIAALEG
In words: two-hybrid library CCmax. The note with it: mean of both orientations.

For a further assay, the target named is T20, 4H384-AA.
T20 chain: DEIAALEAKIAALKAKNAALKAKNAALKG
In words: two-hybrid library CCmax. The following applies: mean of both orientations.

The next assay concerns the target T21, 4H390-AA.
T21 chain: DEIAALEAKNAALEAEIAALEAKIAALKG
Kind of assay: two-hybrid library CCmax. The note with it: mean of both orientations.

The next assay deals with T22, 4H3905-AA.
T22 chain: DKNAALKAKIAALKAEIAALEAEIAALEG
Kind of assay: two-hybrid library CCmax. The note with it: mean of both orientations.

For a further assay, the target named is T23, 4H3922-AA.
T23 chain: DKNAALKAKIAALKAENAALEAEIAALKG
In words: two-hybrid library CCmax. The following applies: mean of both orientations.

The next assay has as its target T24, 4H3940-AA.
T24 chain: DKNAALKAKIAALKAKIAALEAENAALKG
Kind of assay: two-hybrid library CCmax. The following applies: mean of both orientations.

Another assay concerns the target T25, 4H4033-AA.
T25 chain: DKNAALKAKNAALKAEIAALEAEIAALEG
Kind of assay: two-hybrid library CCmax. The note with it: mean of both orientations.

The target in another assay is T26, 4H4038-AA.
T26 chain: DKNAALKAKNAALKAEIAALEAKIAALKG
Kind of assay: two-hybrid library CCmax. The following applies: mean of both orientations.

A further assay addresses T27, 4H43-AA.
T27 chain: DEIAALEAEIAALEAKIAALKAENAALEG
Kind of assay: two-hybrid library CCmax. The following applies: mean of both orientations.

A further assay addresses T28, 4H451-AA.
T28 chain: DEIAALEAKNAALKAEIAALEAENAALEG
Kind of assay: two-hybrid library CCmax. The following applies: mean of both orientations.

The next assay concerns the target T29, 4H481-AA.
T29 chain: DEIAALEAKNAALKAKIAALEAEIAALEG
Kind of assay: two-hybrid library CCmax. The note with it: mean of both orientations.

Another assay has as its target T30, 4H510-AA.
T30 chain: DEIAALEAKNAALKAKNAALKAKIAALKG
Kind of assay: two-hybrid library CCmax. The note with it: mean of both orientations.

A further assay deals with T31, 4H55-AA.
T31 chain: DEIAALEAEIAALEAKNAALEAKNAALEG
Kind of assay: two-hybrid library CCmax. The note with it: mean of both orientations.

Another assay deals with T32, 4H662-AA.
T32 chain: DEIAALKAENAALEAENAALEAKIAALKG
In words: two-hybrid library CCmax. The note with it: mean of both orientations.

The target in a further assay is T33, 4H775-AA.
T33 chain: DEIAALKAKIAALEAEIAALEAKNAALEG
In words: two-hybrid library CCmax. The following applies: mean of both orientations.

For the next assay, the target named is T34, 4H816-AA.
T34 chain: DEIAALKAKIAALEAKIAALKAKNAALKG
In words: two-hybrid library CCmax. The note with it: mean of both orientations.

A further assay addresses T35, 4H87-AA.
T35 chain: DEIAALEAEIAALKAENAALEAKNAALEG
Kind of assay: two-hybrid library CCmax. The following applies: mean of both orientations.

For the next assay, the target named is T36, 4H_APH.
T36 chain: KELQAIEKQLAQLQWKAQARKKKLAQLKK
In words: two-hybrid library CCmax. The following applies: mean of both orientations.

Another assay has as its target T37, 4H_BCR.
T37 chain: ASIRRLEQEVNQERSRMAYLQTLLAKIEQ
Kind of assay: two-hybrid library CCmax. The following applies: mean of both orientations.

A further assay has as its target 4H_GCN4. In words: two-hybrid library CCmax. The following applies: mean of both orientations.
For the next assay, the target named is GCN2_T. Kind of assay: two-hybrid library CCmax.
A further assay has as its target T38, O11-AA.
T38 chain: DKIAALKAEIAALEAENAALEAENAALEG
Kind of assay: two-hybrid library CCmax. The following applies: mean of both orientations.

Another assay deals with T39, O13-AA.
T39 chain: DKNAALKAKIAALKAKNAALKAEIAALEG
Kind of assay: two-hybrid library CCmax. The following applies: mean of both orientations.

For the next assay, the target named is T40, O14-AA.
T40 chain: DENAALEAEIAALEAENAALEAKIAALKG
Kind of assay: two-hybrid library CCmax. The note with it: mean of both orientations.

In another assay the target is T41, zCON9_B.
T41 chain: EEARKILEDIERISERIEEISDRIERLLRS
Kind of assay: two-hybrid library CCmax.

A further assay has as its target T42, zCON9_D.
T42 chain: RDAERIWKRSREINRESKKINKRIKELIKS
Kind of assay: two-hybrid library CCmax.

Sequence of 4H_GCN4 (chain, as listed by the source): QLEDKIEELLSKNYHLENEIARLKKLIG

As for DKIQELKKKNEELKREIWELEKEIQELKR [4H3010-bH], the interaction score with 4H3112-bH was -1.68; with 4H3427-bH, 0.496; with 4H346-bH, -0.345; with 4H3926-bH it was 0.68; in the assay with 4H4073-bH, 0.581; with 4H457-bH, 0.658. In addition, the interaction score is -2.51 with 4H575-bH; 0.161 with 4H683-bH; -1.06 with 4H754-bH; -0.427 with 4H780-bH; -1.11 with 4H797-bH; -0.95 with 4H855-bH. For the same molecule, the interaction score in the assay with 4H918-bH was -2.71; in the assay with 4H953-bA, -0.817; with 4H953-bH, 0.505; in the assay with 4H968-bH it was 0.0625.
On to DKNAALKAEIAALEAKIAALKAEIAALEG [4H3625-AA], for which the interaction score in the assay with 4H3625-AA is 2.27; in the assay with 4H3664-AA it was -0.0768; with 4H369-AA, -0.703; with 4H384-AA, -1.24; in the assay with 4H390-AA, 1.54; in the assay with 4H3905-AA it was 2.29. Further, the interaction score is 0.185 in the assay with 4H3922-AA; -0.199 with 4H3940-AA; -0.401 with 4H4033-AA; 1.61 with 4H4038-AA; 1.85 in the assay with 4H43-AA; -1.64 with 4H451-AA. Besides, the interaction score with 4H481-AA was -0.502; with 4H510-AA, -1.93; with 4H55-AA it was -1.29; in the assay with 4H662-AA, -1.3; in the assay with 4H775-AA it was 0.881; in the assay with 4H816-AA, 1.38. Further, the interaction score is -0.904 with 4H87-AA; -1.59 with 4H_APH; -1.17 in the assay with 4H_BCR; -0.702 with 4H_GCN4; -0.674 with GCN2_T; -1.53 with O11-AA. Besides, the interaction score was -1.47 with O13-AA and 1.44 with O14-AA.
Consider PKKEAEELAEESEELHDRSEKLHERAEQ [zCON9_A], for which the interaction score in the assay with zCON9_B was -2.01; with zCON9_D, -2.12.
